# According to patent US20200165312A1, “COSMETIC COMPOSITION FOR IMPROVING SKIN CONDITIONS COMPRISING FUSION PROTEIN INCLUDING SKIN PENETRATION ENHANCING PEPTIDE” (LG HOUSEHOLD & HEALTH CARE LTD., priority 2017, published 2020):
# B1: T-VEGF: SEQ ID NO: 1 peptide C-terminal linked to N-terminal of VEGF via GG linker (protein)
# chain: NGSLNTHLAPILGGAPMAEGGGQNHHEVVKFMDVYQRSYCHPIETLVDIFQEYPDEIEYIFKPSCVPLMRCGGCCNDEGLECVPTEESNITMQIMRIKPHQGQHIGEMSFLQHNKCECRPKKDRARQENPCGPCSERRKHLFVQDPQTCKCSCKNTDSRCKARQLELNERTCRCDKPRR
# modifications: Synthetic Fusion protein of T-VEGF
# Tested on: dermal fibroblasts
# Assay: Hyaluronic acid (HA) production in dermal fibroblasts (ELISA)
# Type: cell-based, human
# Details: two days
# Description: (§1) Specifically, dermal fibroblasts were inoculated onto a 24-well plate and cultured for 24 hours to obtain cultures having a saturation degree of 70 to 80%. The cultures were washed with PBS and cultured in a serum-free DMEM medium including 10 ng/mL T-PDGFa or PDGFa for two days. A supernatant was obtained therefrom and the amount of hyaluronic acid (HA) produced and released in the culture solution was quantitively analyzed using an ELISA kit (R&D Systems) (Table 5).
# as §1, with “The cultures were washed with PBS and cultured in a serum-free DMEM medium including 10 ng/mL T-PDGFa or PDGFa for two days.” left out, “9).” for “5).”
molecule,measurement,setting,value
B1,Production (%) of hyaluronic acid (HA),"10 ng/mL T-VEGF or VEGF, control = 100",230 ± 18%
same,hyaluronic acid producing effect compared with the unfused protein,10 ng/mL,same level
